Assay: MR T1 relaxivity of contrast agents
Format: physicochemical
Conditions: globular versus elongated conformation
Method: A low relaxivity or long relaxation time is associated with an elongated molecule such as a highly substituted Gd-DTPA-PLL, in which the Gd can rotate rapidly, having a relaxivity of about 8 sec^−1 mM^−1. When the relaxivity of a peptide contrast agent was high, the uptake coefficient of such an agent was invariably low, evidently due to the absence of a reptation movement of the contrast agent molecule, resulting in the exclusion of the contrast agent from narrow passages. Thus, it is important to establish that the peptides being compared for optimum length are all of the same conformation. Relaxivity values of the Gd-PLL for various lengths were tested to be between 7.5 and 10 for average chain length of 92, 219, 455, 633, and 1163 residues, in a 2 Tesla magnet (2 T) at 80 MHz and 23° C.

With albumin the relaxivity was “about 15 sec^−1 mM^−1”.

— patent US20040265235A1, “Magnetic resonance contrast-enhancing agents and method for detecting and imaging artherosclerotic plaque” (priority 2003, published 2004)
